A short description of this series: soluble on expression in E. coli; label from the status in PepcDB or PDB records.
“MSLADVQQFPESIAELVPKFHVLKLPMVTRFRSITEREVMLFEGPDGWAEFSPFTEYGSVESSRWLQAALEFAGLLPTAEVEPSAVGSAAETVGQSVAVNATLPACATSEVGPILARYGPVGTVKAKVAEHGIDSLPEDWDRLREFRRLFPETTLRLDANAGYALPEALAACTEFAEFDLQYFEQPVAAVEDMARLREQLSARELPVVLAADESIRKAEDPVRVAELGAAEVVIVKVQPLGGIAAARSVLEACGLPAVVSSALESSVGLAAGAQLAATLPRTQRSRELLGEHPACGLGTGRLFAEDVVEPAQSLRPVDGQIPVTRIVPDPQRLETLAVDPGRFDWWEKRLQECWTALLSRRSEGHHHHHH”: the “soluble on expression in E. coli” value was “not soluble”.

As for “GPGSMSTMAASRSDTPAPVHEMSMERLRREYVSLKSTSYSLTVEESHLIRKIETLREESVRAVLNAEMKEEQVSNQLFRRLDGAEREVQRYQALLKEEESEAESLSGRIKEMRSQQTEVENALEERQEYLLMNLQRKLLDMARKKTAVEQELMAERQKYLDVLVTRLNMLRGRGVGSSTESSVTIHSQPSPAEANTVPVAKHLDVPLPTTAAPHISTPLLRTGVPLGDNHGMLPAEKPLREDAHTDAGLPLPFVLSPAISAQKKPKDGVIVNASRGNTSSTSGRLSASTTPLSADLTPRSSHSSETHHAVVALERKLNQLLLEQAAAMQRTSATEKQCAVLTAKLHAVQEATFLDRARASKMKEELEKARARLSEVKARDRSGIPFSPLDDTSVMSGSNASFDNSSPLVLSSLSLRERTRELLSSVPQPNANERPC”, the “soluble on expression in E. coli” value is “not soluble”.

In the case of “MIDNVADGKIEADSKQAVNGGQLRDYTEQQMKIVLDDAKKYTDEQVKDRVSNGVNEAKSYTDMKFETLSYVVEDVRKAARQAVAMGLAVSNLRYYDIPGSLSLSFGTGIWRNQSAFAIGVGYTSEDGNIRSNLSITSADSHWDIGAGLRIKLN”, the “soluble on expression in E. coli” value is “not soluble”.

As for “MSLIDRTHELPLTQQCRILRLARSSMYYTPREVSAHDLALMRRMDELHLEHPFAGARMLRDLLRAEGHAIGRKHVGTLMRRMGIEALYRKPNTSRRRRGDEIYPYLLRDLKIERPNQAWAADITYIPMRKGFVYLFAIIDWSSRRVLAWRLSNTLTTDFCLDAVREALHRYGRPEIFNTDQGCQFTSTDFTDLLKDNGIQISMDGKGCWRDNVFVERLWKSVKYEEVYLKAYDSVAEAKAHLGAYLRFYNERRPHRAHDGRTPDQAYFGALRDETPLAAEGHHHHHH”, the “soluble on expression in E. coli” value was “not soluble”.

As for “GMEVIESKWYKKDGASSASIDDVEKLLNTTLPKQYKSFLLWSNGGEGKLGDNYIYIWAIEDVIAYNHDYGIQKYLQKEYWAFGMDGDIGYILHLSDNSIYRVDLGDLDITSIKYIAPSFDDFLGKAIYLNFNKLQNVANNNLTT”, the “soluble on expression in E. coli” value is listed as “soluble”.

On to “MIQIRPMTPEDFDRFWPTFQAVVVAQETYAYDPALTQEQACDVWLKLPLHTLIAEEDGQLLGSYYLKANAAGPGNHVCNCGYMVTDAALGRGVARLMCEHSQQLARDSGFLAMQFNSVVASNEVAVALWAKLGFETVGRLPKAYRHARLGLVDCLVMFKWLADAPIAAEPVQPKLIGRKNIESVVSRPRRK”, for which the “soluble on expression in E. coli” value is given as “not soluble”.

As to “MASMTGGQQMGRGSMAGVLPAHGTQHGIRLPLRSGLGGAPLGLRLPRETDEEPEEPGKKGSFVEMVDNLRGKSGQGYYVEMTVGSPPQTLNILVDTGSSNFAVGAAPHPFLHRYYQRQLSSTYRDLRKGVYVPYTQGKWEGELGTDLVSIPHGPNVTVRANIAAITESDKFFINGSNWEGILGLAYAEIARPDDSLEPFFDSLVKQTHVPNLFSLQLCGAGFPLNQSEVLASVGGSMIIGGIDHSLYTGSLWYTPIRREWYYEVIIVRVEINGQDLKMDCKEYNYDKSIVDSGTTNLRLPKKVFEAAVKSIKAASSTEKFPDGFWLGEQLVCWQAGTTPWNIFPVISLYLMGEVTNQSFRITILPQQYLRPVEDVATSQDDCYKFAISQSSTGTVMGAVIMEGFYVVFDRARKRIGFAVSACHVHDEFRTAAVEGPFVTLDMEDCGYNIPQTDES”, the “soluble on expression in E. coli” value is given as “soluble”.

As to “YKTPLLKALSAVGKAAVDVCRYFNPEVKKVVAYLGWEQEYFLVDEGLYAARPDLLLTGRTLMGHEASKNQQLEDHYFGAIPTRVAAFMKDLEIQALELGIPVKTRHNEVAPNQFELAPIFEECNLAVDHNMLLMSLMRKVARSHGFRLLLHEKPFKGVNGSGKHNNWSLGTDTGVLLMAPGKTAEDNLRFITFIVNTLMAVYHHNGLLKASIMSATNAHRLGANEAPPAIISSFLGKQLTQVLDHIEESGNDDLVSLAGKQGMKLDIPQIPELLIDNTDRNRTSPFAFTGNRFEFRAVGSEANCASAMIALNAAVAEQLARFKQDVDALIEKGEPKISAIIEIIRRYIKECKPVRFDGNGYSDEWKAEAAHRGLDCETSCPLIFDNYLKPASIAMFESTGVMTRKELEARNEVKWETYTKKIQIEARVLGDLAMNH”, the “soluble on expression in E. coli” value is listed as “not soluble”.

As for “MSLTGLCDSHLHTPLCGHATGTPREYAQAALDAGLSGLCFTDHMPMPRWYDAPWRMKLEQLPEYIAEIQAVQQEFAGRLDVRLGLEADFHPGTEKFVEKVLGMFDWDYVIGSVHYLGAWGFDNPEFVAEYEERDLGGLYRDYYALVEGAARSGLFDAIGHLDLPKKFGHLDPDPVYALHALDVVAGQGLALDFNTAGWRKPVAEAYPAPDLVRAAAERGIPFVLGSDAHQPGEVGFRFADAVKEIRDVGGRTVTFRHRKMQEGHHHHHH”, the “soluble on expression in E. coli” value was “soluble”.

“MKIVSKSSPLPLHYQLKMILQEMIENEELLPGDTIPTERELCEIQKISRMTVNKAILSLVSEGILYREQGKGTFVAKKKEKQQLTKLKSFTEEMREKGLNISTKILSFEIKTATKHISTLLELPHKKMKVIEIIRLRLTDNDPSAIETVVLPLYLFSDMTKEVIDGKSLYNTFREKYGYEPTKAKQTIEPIMLTDYEAKFLNQVGNSLALLFRRLTYRKDGVPIEYTKSIYRSEKYKYEVILT”: the “soluble on expression in E. coli” value is recorded as “not soluble”.

Regarding “TVNQAKIFAQTTKMLEFAKQLLETDDFSTLREAYYVSKNWGEARFDDQQASNNVIEDLEAALGVLREHLGFIPEEDGSSVVGPLKIIEETPEGELVVDCTKLGTGAYNIPNDVTKLNLETDADFILAIETSGMFARLNAERFWDKHNCILVSLKGVPARATRRFIKRLHEEHDLPVLVFTDGDPYGYLNIYRTLKVGSGKAIHLADKLSIPAARLIGVTPQDIIDYDLPTHPLKEQDIKRIKDGLKNDDFVRSFPEWQKALKQMLDMGVRAEQQSLAKYGLKYVVNTYLPEKIKDESTWLP”, the “soluble on expression in E. coli” value is “soluble”.

Turning to “KPPIPPQVEEEYYTIAEFQTTIPDGISFQAGLKVEVIEKNLSGWWYIQIEDKEGWAPATFIDKYKKTSNASRPNFLAPLPHEVTQLRLGEAAALENNTGSEATGPSRPLPDAPHGVMDSGLPWSKDWKGSKDVLRKASSDMSASAGYEEISDPDMEEKPSLPPRKESIIKSEGELLERERERQRTEQLRGPTPKPPGVILPMMPAKHIPPARDSRRPEPKPDKSRLFQLKNDMGLECGHKVLAKEVKKPNLRPISKSKTDLPEEKPDATPQNPFLKSRPQVRPKPAPSPKTEPPQGEDQVDICNLRSKLRPAKSQDKSLLDGEGPQAVGGQDVAFSRSFLPGEGPGRAQDRTGKQDGLSPKEISCRAPPRPAKTTDPVSKSVPVPLQEAPQQRPVVPPRRPPPPKKTSSSSRPLPEVRGPQCEGHESRAAPTPGRALLVPPKAKPFLSNSLGGQDDTRGKGSLGPWGTGKIGENREKAAAASVPNADGLKDSLYVAVADFEGDKDTSSFQEGTVFEVREKNSSGWWFCQVLSGAPSWEGWIPSNYLRKKP”, the “soluble on expression in E. coli” value is “soluble”.

“MGSDKIHHHHHHMKHFKYGAIALTLISGLAACGGSGSDEPEVVVPETGFSFDADALIVNLSDEVIVKGYSTLADRGEALLQATQTLVATPTQANLEAAQSAWKAARQPWEQGESHIFGPVDSLGIDPHLDSWPLNTTDLKTVLINSSGFDAETIKGWNDDVQGFHTMEFLLFGDGMDDNVKQIDELTANERDYLMGLAEVFRDYTKQLADAWLVSHDGQSGKAYGELLKSPGVDGNTFYSSQVGVLEELIKGMIGIVDEVGNGKIADPFGGSLASADTSKVESQYSWNSLTDFSDNIIGVRNVYQGEFTGEADKQGIIDFVRAADSELASRIAAEIDAAILQIHAIEGTDKMPFRQAIKDEAGRARIQKAVDALATLQASLENQVLPLLKEWKV”: the “soluble on expression in E. coli” value is “not soluble”.

Take “MKVFLIGANGQIGQRLVSLFQDNPDHSIRAMVRKEEQKASLEAAGAEAVLANLEGSPEEIAAAAKGCDAIIFTAGSGGSTGYDKTLLVDLDGAAKAIEAAAIAGIKRFIMVSALQAHNRENWNEALKPYYVAKHYADKILEASGLTYTIIRPG”: the “soluble on expression in E. coli” value is recorded as “not soluble”.

Consider “MSDVAVAADTTETPAAPTKASKATKASKATKASKATKAKTTKVPMVKADAAHPPFINMVTEAISSIKDRKGPSRAAILKYITTKYTLGDQANKINAHLRKALNKGLESNAFVQASGNGANGRFRLAEKTASVAKSPAAAKKDATGEKKATTTVAKKAATGEKKATTTVAKKAATGEKKATTTVAKKAAAGDKAKKTEVKVKKVKSPKKIAKSPVNKVTKSPVKKIAKSSSMKAAPKKAAAKPAKKAPAAAPEA”, for which the “soluble on expression in E. coli” value is on record as “soluble”.

For “SDYEKFLLFGDSITEFAFNTRPIEDGKDQYALGAALVNEYTRKMDILQRGFKGYTSRWALKILPEILKHESNIVMATIFLGANDACSAGPQSVPLPEFIDNIRQMVSLMKSYHIRPIIIGPGLVDREKWEKEKSEEIALGYFRTNENFAIYSDALAKLANEEKVPFVALNKAFQQEGGDAWQQLLTDGLHFSGKGYKIFHDELLKVIETFYPQYHPKNMQYKLKDWRDVLDDGSNIMS”, the “soluble on expression in E. coli” value is on record as “soluble”.

For the sequence “MGHHHHHHSHLEGPDCCFKSTVAAKLSKELKYPIIKGSSFELAKSGNEKLFEHFNKLADEDNVIIDRFVYSNLVYAKKFKDYSILTERQLRFIEDKIKAKAKVVYLHADPSVIKKRLRVRGDEYIEGKDIDSILELYREVMSNAGLHTYSWDTGQWSSDEIAKDI”, the “soluble on expression in E. coli” value is “not soluble”.

As to “MELTIMSQLIDRRQNAGKKSTVNRQRFLRRYKSQIKKAVSEAVGKRSITEIDQGEQITIPAKDIYEPQFHRGHGGHIERVLPGNDNFIAGDRIKRPGGGGAGGAGGNASDSGEGEDNFVFELSREEFLELYFEDLELPDLVKKELARISTYKTVRAGVTTSGIPNNINVLRSMKQATGRRVALASPYKKRLKEAEEELERLKQLANPDKIDLLKLERDIEFFKKKIQTVPFIDTIDLRYNHRVRVPSPSTQAVMFCVMDVSGSMDEAKKDIAKRFFILLYMFLTKNYEKIELVFIRHHTSAKEVNEEEFFYSRETGGTVVSSALELLNTIIEARYPPQAWNIYVAQASDGDNWNADSPYCQELLQEKIMPLLQYFAYIEIMPRHHQSLWEVYQQVKERYPNFAMENIDNVADIYPVFRELFKRKTVAAALEHHHHHH”, the “soluble on expression in E. coli” value is on record as “not soluble”.

For the sequence “MRILVTNDDGIYSPGLWALAEAASQFGEVFVAAPDTEQSAAGHAITIAHPVRAYPHPSPLHAPHFPAYRVRGTPADCVALGLHLFGPVDLVLSGVNLGSNLGHEIWHSGTVAAAKQGYLFGLSAAAFSVPLNGEVPDFAGLRPWLLRTLETLLRLERPFLVNVNLPLRPKGFLWTRQSVRAYEGVVIPGEDPMGRPFYWFAPRPLKEAEEGTDRWAVAQGFVSATPLRLDLTDETRLQPTLAHD”, the “soluble on expression in E. coli” value is given as “soluble”.

Take “MGSDKIHHHHHHMRIQQLHYIIKIVECGSMNEAAKQLFITQPSLSNAVKDLEMEMGITIFNRNPKGITLTKDGVEFLSYARQIIEQTSLLEDRYKNHNTGRELFSVSSQHYAFVVNAFVSLLKRTDMTRYELFLRETRTWEIIDDVKNFRSEIGVLFINDYNRDVLTKLFDDNHLTASPLFKAQPHIFVSKSNPLATKSLLSMDDLRDFPYLSYDQGIHNSFYFSEEMMSQMPHNKSIVVSDRATLFNLMIGLDGYTVASGILNSNLNGDQIVAIPLDVPDEIDIVFIKHEKANLSKMGERFIEYLLEEVTFD”: the “soluble on expression in E. coli” value is listed as “not soluble”.

The record behind these values is the DeepSol protein solubility set.
